Measured values as given in paper PMC8394153, “Novel Glutamate–Putrescine Ligase Activity in Haloferax mediterranei: A New Function for glnA-2 Gene” (Biomolecules, 2021).

Biological target: the molecule itself
Assay: SEC; HiPrep 16/60 Sephacryl S-300 High-Resolution column; eluted in 20 mM Tris-HCl, 2 M NaCl, 10 mM MgCl2, pH 7.5, 0.5 mL/min, room temperature; standard proteins 12.5 to 678 kDa; oligomer size from 667 kDa against a 55 kDa monomer (SDS-PAGE)

B1: recombinant GlnA-2 protein (HFX_1688) from Haloferax mediterranei (enzyme, UniProt I3R584 1-446, looked up)
chain: MSDTSTVKSQCEDQNIDLIRLLYVTPSGVIQANTVDVSEVDAAVESGVTLSEVIQVYDAFACRNRNSRFDAVGEVHLCPDPETFRPLPYADRAGAMLCNIRTLDGEPWDVDSRSSLQSVERDLRAKGLSPQVAFESEFSLFSRDGDGKINRGDEAGAYRTESIRGTHDAILHIVDALKAQGIDVKKYHPEFSPGKHEIVTGHHTGLEAADEHLLLRETVKSVAEQDGYQATFLPKPFDDGTNGCHINVSLWNGENQFFDPNHGDISETARQFIAGVLDHAPAVLALTAPTVNSYSRLQPRHGAAGYICWGWLNREALIRVPAPAQGREADSTRIEFRGADNTANPYLGLIGLLAAGNDGIERELEPPEPVSVDPCDLTDAQRTAKGIKRLPQTLGEALDALETNEVLREALGPDLFDAYVEVKRNHWKLFTESAGAWQRERLRNLY
notes: GlnA-2 of Haloferax mediterranei R4 (ATCC 33500T), locus HFX_1688, annotated as glutamine synthetase; monomer 55 kDa by SDS-PAGE; also called glutamate–putrescine ligase; HFX_01688; source: heterologous expression in E. coli, purified (gel filtration); copies: 12
- stoichiometry N: 12
